This note sets out measurements from article PMC10244618.

B1: NF2 (merlin) isoform 7, human, full length (507 aa, lacks exons 2-3 = isoform-1 residues 39-121; exon-16 C-terminus), P35240-4 (parent)
chain: MAGAIASRMSFSSLKRKQPKTFTVRIVTMDAEMEFNCEVKKQILDEKIYCPPEASVLLASYAVQAKYGDYDPSVHKRGFLAQEELLPKRVINLYQMTPEMWEERITAWYAEHRGRARDEAEMEYLKIAQDLEMYGVNYFAIRNKKGTELLLGVDALGLHIYDPENRLTPKISFPWNEIRNISYSDKEFTIKPLDKKIDVFKFNSSKLRVNKLILQLCIGNHDLFMRRRKADSLEVQQMKAQAREEKARKQMERQRLAREKQMREEAERTRDELERRLLQMKEEATMANEALMRSEETADLLAEKAQITEEEAKLLAQKAAEAEQEMQRIKATAIRTEEEKRLMEQKVLEAEVLALKMAEESERRAKEADQLKQDLQEAREAERRAKQKLLEIATKPTYPPMNPIPAPLPPDIPSFNLIGDSLSFDFKDTDMKRLSMEIEKEKVEYMEKSKHLQEQLNELKTEIEALKLKERETALDILHNENSDRGGSSKHNTIKKPQAQGRRPICI

Values joined by “and” are separate entries in the source; they are usually repeats but may differ in a detail not shown here. Equal values may be shown once.

The first assay covers variants of B1. The assay can be described thus: reverse yeast two-hybrid deep mutational scan (rY2H-seq): NF2 isoform 7 mutant library as bait mated with wild-type prey strains; selection on medium lacking adenine for non-interacting pairs; NextSeq paired-end sequencing; enrichment vs …. The settings on record: with KDM1A (lysine-specific histone demethylase 1A; the table's label AOF2 is a gene synonym of KDM1A), O60341; yeast diploids after mating (RBait_S3 x RPrey_S3), 30 °C, selection for reporter genes on NB agar; human ABL2 co-expressed as the kinase-dead K35M mutant …; HIGHER = WEAKER BINDING (the opposite of display enrichments): higher = stronger loss of interaction: reverse Y2H selects yeast in which bait and prey do NOT interact (growth without adenine), so a …; hits-only table; scale: rY2H score; numbering: uniprot, sequence starts at 1. A general note: A reporter such as luciferase makes a cellular process visible.
Consider L315S, for which the enrichment amounted to 4.11. Turning to L315P, the enrichment amounted to 2.33. D71K: the enrichment stood at 5.71.

For R328P, the enrichment was 1.53. With E344V, the enrichment stood at 1.58. For M357D, the enrichment is 7.23. For A406Q, the enrichment turned out to be 1.87. With D428K, the enrichment is 2.24. As to A354L, the enrichment was found to be 3.5. Regarding V352S, the enrichment turned out to be 3.21.

Consider P410R, for which the enrichment was found to be 1.58. On to P410K, for which the enrichment was 9.12 and 4.16. Regarding H112A, the enrichment is 2.37. For the variant K386T, the enrichment came out at 5.27.

Take E309L: the enrichment amounted to 1.9. As for A312L, the enrichment came to 3.21. The same measure, in the same setting: for K313L the value was 2.56; for L422A, 2.07; for M262I, 1.81. On the same count and under the same terms, the value for L353A was 2.32; that for A302T was 1.57. On the same count and under the same terms, the value for E351K was 1.66 and 2.35; that for I392E was 3.78. Regarding D271K, the enrichment is 5.07. Consider L390C, for which the enrichment came to 6.37. For the variant H159P, the enrichment turned out to be 1.84. Regarding H159E, the enrichment was determined as 3.49. As to R363G, the enrichment amounted to 1.89. As to A393L, the enrichment stood at 1.9. As for R248C, the enrichment was found to be 1.52. Take E362L: the enrichment is 2.21. Consider E311L, for which the enrichment is 2.66. Regarding D374T, the enrichment is 7.88 and 2.96. Consider R379C, for which the enrichment worked out at 2. Regarding M238I, the enrichment is 2.35. Turning to P407K, the enrichment is 4.15. Still for that read-out and setting: for P407T the value was 2.05; for P192S, 1.69; for E337L, 1.6. P405S: the enrichment worked out at 6.05.

Take R227E: the enrichment came to 14.7. Take T168P: the enrichment turned out to be 1.77.

In the case of T168D, the enrichment was determined as 2.37. Still for that read-out and setting: the value for R228G was 8.73. L300P: the enrichment amounted to 4.3.

With K191Y, the enrichment is 1.65. For E123L, the enrichment turned out to be 1.42. Take F426A: the enrichment came out at 3.99. For the variant Q370A, the enrichment was 1.45 and 2.01.

In the case of S488R, the enrichment turned out to be 1.65. Turning to R383A, the enrichment was determined as 1.83.

The same assay, now with this note: with NF2 C-terminal domain (wild type; homomeric NF2-NF2 interaction), P35240; yeast diploids after mating (RBait_S3 x RPrey_S3), 30 °C, selection for reporter genes on NB agar; human ABL2 co-expressed as the kinase-dead K35M mutant …; HIGHER = WEAKER BINDING (the opposite of display enrichments): higher = stronger loss of interaction: reverse Y2H selects yeast in which bait and prey do NOT interact (growth without adenine), so a …; hits-only table; partner unresolved; scale: rY2H score; numbering: uniprot, sequence starts at 1.
Consider M357D, for which the enrichment is 2.94.

With K313L, the enrichment is 2.4. With E351K, the enrichment is 2.95 and 2.99. As for L390C, the enrichment turned out to be 4.75. In the case of D374T, the enrichment worked out at 3.23. For the variant F415A, the enrichment is 2.73. In the case of P405L, the enrichment turned out to be 7.16. K191Y: the enrichment came out at 1.46. Same read-out and setting: for S488R the value was 1.58.

Take R383K: the enrichment was 1.66.

The same assay, now with this note: with EMILIN1 (elastin microfibril interfacer 1), Q9Y6C2; yeast diploids after mating (RBait_S3 x RPrey_S3), 30 °C, selection for reporter genes on NB agar; human tyrosine kinase ABL2 co-expressed as the active kinase …; HIGHER = WEAKER BINDING (the opposite of display enrichments): higher = stronger loss of interaction: reverse Y2H selects yeast in which bait and prey do NOT interact (growth without adenine), so a …; hits-only table; scale: rY2H score; numbering: uniprot, sequence starts at 1.
On to A406Q, for which the enrichment stood at 2.56. A406K: the enrichment was 2.13. On the same count and under the same terms, for D428K the value was 4.1; for P410K, 1.53. K386Q: the enrichment is 2.16.

As for K386T, the enrichment was 7.62. As to L422A, the enrichment was determined as 1.78. On to S483E, for which the enrichment turned out to be 1.84. For the variant N480A, the enrichment turned out to be 1.73. As for R471G, the enrichment is 1.53.

Consider L390C, for which the enrichment is 5.21 and 8.08.

With A393K, the enrichment turned out to be 1.55.

For N416T, the enrichment worked out at 2.76. Regarding N416A, the enrichment was determined as 6.7. Same read-out and setting: for N416R the value was 3.29. Take D476V: the enrichment came out at 5.43. Turning to F415A, the enrichment amounted to 1.74. The same measure, in the same setting: the value for P407K was 2.11; that for P407R was 4.09.

Consider P405L, for which the enrichment was found to be 5.05.

As to E464L, the enrichment worked out at 1.85. For the variant F426V, the enrichment is 2.88.

On to F426A, for which the enrichment is 1.63.

E391L: the enrichment came out at 2. Regarding S488R, the enrichment is 1.65.

For the variant R383A, the enrichment was 1.5 and 2.77. As to R383K, the enrichment was determined as 2.82.

Still in this assay, the particulars now being: with KDM1A (lysine-specific histone demethylase 1A; the table's label AOF2 is a gene synonym of KDM1A), O60341; yeast diploids after mating (RBait_S3 x RPrey_S3), 30 °C, selection for reporter genes on NB agar; human tyrosine kinase ABL2 co-expressed as the active kinase …; HIGHER = WEAKER BINDING (the opposite of display enrichments): higher = stronger loss of interaction: reverse Y2H selects yeast in which bait and prey do NOT interact (growth without adenine), so a …; hits-only table; scale: rY2H score; numbering: uniprot, sequence starts at 1.
Take A354L: the enrichment came out at 3.78. The same measure, in the same setting: the value for E309L was 1.51; that for S483E was 1.8 and 1.81. Consider H159P, for which the enrichment is 3.93 and 3.02. For the variant H159E, the enrichment was 1.44. For the variant E311L, the enrichment was found to be 5.65.

For the variant R379C, the enrichment was determined as 2.04. Turning to P407K, the enrichment was determined as 2.54.

Staying with this assay, now noted: with PIK3R3 (phosphatidylinositol 3-kinase regulatory subunit gamma), Q92569; yeast diploids after mating (RBait_S3 x RPrey_S3), 30 °C, selection for reporter genes on NB agar; human tyrosine kinase ABL2 co-expressed as the active kinase …; HIGHER = WEAKER BINDING (the opposite of display enrichments): higher = stronger loss of interaction: reverse Y2H selects yeast in which bait and prey do NOT interact (growth without adenine), so a …; hits-only table; scale: rY2H score; numbering: uniprot, sequence starts at 1.
With A302T, the enrichment was 3.87. With S483E, the enrichment came out at 3.26. As for L390C, the enrichment is 10.7. The same measure, in the same setting: the value for H159E was 6.11; that for A393K was 3.14; that for M238I was 2.66. As for P407K, the enrichment was found to be 2.65. Same read-out and setting: for P407T the value was 2.62; for R227E, 36.3; for R228G, 15.3.
